The data set has as its system tet operator sequence. Nature of the data set: β-galactosidase activity of a tetracycline-regulated promoter in transformed E. coli with revTetR, in the presence and absence of anhydrotetracycline (atc). The format is cell-based, Escherichia coli. The conditions noted are these: for β-Galactosidase Activity, Cultured Without ATC: RevTetR isolate cultured in the absence of anhydrotetracycline (ATC); for β-Galactosidase Activity, Cultured With ATC: RevTetR isolate cultured in the presence of anhydrotetracycline (ATC). An outline of the steps: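 TetR(BD) chimera mutants (TetR(B) residues 1–50, TetR(D) 51–208) expressed in E. coli regulating a tet operator-controlled lacZ. β-Galactosidase measured in Miller units at 28 °C and 37 °C with and without anhydrotetracycline; reported as percent of maximal expression without Tet repressor.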

Residue numbers refer to the chain shown, from its start. In names and notes the source's numbering stands.

B1: TetRrev29/27: revTetR(BD) L14E V20G (protein)
chain: MSRLDKSKVINSAEELLNEGGIEGLTTRKLAQKLGVEQPTLYWHVKNKRALLDALAVEILARHHDYSLPAAGESWQSFLRNNAMSFRRALLRYRDGAKVHLGTRPDEKQYDTVETQLRFMTENGFSLRDGLYAISAVSHFTLGAVLEQQEHTAALTDRPAAPDENLPPLLREALQIMDSDDGEQAFLHGLESLIRGFEVQLTALLQIV
modifications: Modified tetracycline repressor
notes: revTetR(BD) L14E V20G
In the case of B1, the “β-Galactosidase Activity, Cultured Without ATC” value came to 82.7579 and the “β-Galactosidase Activity, Cultured With ATC” value was found to be 9.453.

B2: TetRrevAtc4-1: revTetR(BD) A50S D53F A56G V57I H63Q (protein)
chain: B1 chain with E14L, G20V, A50S, D53F, A56G, V57I, H63Q
modifications: Modified tetracycline repressor
notes: revTetR(BD) A50S D53F A56G V57I H63Q
Turning to B2, the “β-Galactosidase Activity, Cultured Without ATC” value is 100.076 and the “β-Galactosidase Activity, Cultured With ATC” value is reported as 6.9011.

B3: TetRrev29/52: revTetR(BD) L14V L17V N18K V20V G24G (protein)
chain: B1 chain with E14V, L17V, N18K, G20V
modifications: Modified tetracycline repressor
notes: revTetR(BD) L14V L17V N18K V20V G24G
As to B3, the “β-Galactosidase Activity, Cultured Without ATC” value was determined as 48.4964 and the “β-Galactosidase Activity, Cultured With ATC” value came to 3.3035.

B4: TetRrev29/35: revTetR(BD) L17S E23D (protein)
chain: B1 chain with L17S, E23D
modifications: Modified tetracycline repressor
notes: revTetR(BD) L17S E23D
Regarding B4, the “β-Galactosidase Activity, Cultured Without ATC” value is recorded as 58.0891 and the “β-Galactosidase Activity, Cultured With ATC” value turned out to be 2.1051.

B5: TetRrev29/42: revTetR(BD) E19D G96R (protein)
chain: B1 chain with E14L, E15D, G20V, G96R
modifications: Modified tetracycline repressor
notes: revTetR(BD) E19D G96R
Turning to B5, the “β-Galactosidase Activity, Cultured Without ATC” value was determined as 96.187 and the “β-Galactosidase Activity, Cultured With ATC” value was 11.861.

(Values after patent publication US20030186281A1, “Modified tetracycline repressor protein compositions and methods of use” (priority 2001, published 2003).)
